Experimental findings from US20240165140A1, “MEDICATION FOR INHIBITING DNA-PKCS” (TSINGHUA UNIVERSITY, priority 2017, published 2024) are described below.

One experiment addresses T1, DNA-PKcs (Homo sapiens, UniProt P78527).
T1 construct: incubated with A549 cell lysate; endogenous in cells; host or cells: A549 and H1299 cells (lysates)
The experiment in a line: Endostatin-coupled CNBr-activated Sepharose 4B pull-down and co-immunoprecipitation. Type of experiment: binding. The method, then: CNBr-activated Sepharose 4B used in this example was purchased from Sigma. First, according to the instructions, endostatin and bovine serum albumin (BSA) were coupled to CNBr-activated Sepharose 4B, respectively, and incubated with A549 cell lysate. The pull down proteins were subjected to SDS-PAGE electrophoresis and stained with Coomassie blue. […] To further verify the interaction between the two, H1299 and A549 cells were incubated with Endostatin for 2 hours for endocytosis. The cell lysate was mixed with the antibody of DNA-PKcs, and then co-incubated with protein A/G beads.

In experiment [1] the test system is DNA-PKcs signaling pathway. Put plainly: Immunoblotting of DNA-PKcs signaling pathway activation induced by chemotherapeutic agent. Type of experiment: cell-based. The settings on record: H1299 and A549 cells; single agent 1 h (Etoposide 10 μM, Endostatin 10 μg/ml, NU7026 10 μM); compared with control group. From the text: Tumor cells (including non-small cell lung cancer H1299 and A549 cells) were divided into six treatment groups.
Tumor cells (including H1299 and A549 cells) were divided into six treatment groups.
A general note: A western blot detects proteins with antibodies after separation by electrophoresis.

A further experiment has as its system H1299 and A549 cells. The experiment in a line: Annexin V-FITC/PI apoptosis by flow cytometry with DNA-PKcs siRNA knockdown. Type of experiment: cell-based. The note with it: Endostatin 10 μg/ml added 1 h before Etoposide (10 μM for H1299, 1 μM for A549, 16 h). The method, then:
In this example, tumor cells (including H1299 and A549 cells) were divided into eight treatment groups. In the first four groups, cells were transfected with control siRNA, and in the last four groups, cells were transfected with siRNA that specifically knocked down DNA-PKcs. The siRNA sequence of DNA-PKcs is: forward 5′-[…]-3′ (SEQ ID NO: 5), reverse 5′-[…]-3′ (SEQ ID NO: 6). The siRNA transfection method was performed according to the instructions of the transfection reagent Lipofectamine 2000. Then, in the eight groups, the cells were treated with drugs. […] Cells were collected and operations were performed according to the instructions of Annexin V-FITC/PI Apoptosis Detection Kit. Apoptosis was detected by flow cytometry. A549 cells were P53 wild-type cells, and H1299 cells were P53-deficient cells.
In general terms: Flow cytometry measures light scatter and fluorescence of single cells or particles in a stream.

Experiment [2] deals with P53-deficient tumor cells (H1299-NC, A549-shP53). Put plainly: Cell colony formation, P53-deficient tumor cells. Type of experiment: cell-based. The settings on record: Endostatin 10 μg/ml added 1 h before Etoposide 1 μM, 16 h; colonies after 14 days. As for the experimental part: After the treatment, the cells were digested with trypsin, counted, and re-plated in a six-well plate with 1000 cells per well. The cells were cultured in a normal medium for 14 days to form cell colonies.

Experiment [3] has the same test system. The experiment in a line: PI staining apoptosis by flow cytometry, P53-deficient tumor cells. Type of experiment: cell-based. The note with it: Endostatin 10 μg/ml added 1 h before Etoposide 1 μM, 16 h. The method, then: The apoptotic cells and adherent cells floating in the culture medium were collected, and the cells were suspended in 500 μl PBS containing 0.05 mg/ml propidium iodide (PI), stained for 15 min at room temperature in dark, and detected by flow cytometry (BD FACS Calibur). PI-positive cells represent apoptotic cells.

A further experiment has as its system A375 cells. The experiment in a line: CCK8 cell activity, melanoma A375. Type of experiment: cell-based. The settings on record: A375 (P53 wild type); operation process as in Example 5. The method, then: First, a lentivirus kit (purchased from Shanghai Genepharma) was used to construct a P53 stably overexpressing H1299 cell line (H1299-P53) and a P53 stably knockdown A549 cell line […]. The P53 sequence targeted by the shRNA used to knock down P53 in A549 cells was 5′-[…]-3′ (SEQ ID NO: 4). Virus transfection and the construction of stable cell lines were performed according to the kit instructions. […] After treatment for 12 hours, the drug-containing medium was replaced with a normal medium and the cells were further cultured for 72 hours. Cell activity was measured according to the instructions of the CCK8 kit (Dojindo, Tokyo, Japan).
This example used two cell lines of another tumor type (melanoma), the MDA-MB-435S (P53 mutant) and A375 (P53 wild type) cell lines, to verify the regulatory function of Endostatin on the chemotherapeutic sensitivity of other types of tumor cells with different P53 status. Operation process was the same as in Example 5.

The test system of the next experiment is A549-NC tumor. The experiment in a line: Subcutaneous tumor growth in nude mice, A549-NC. Type of experiment: in vivo. The method, then: (§1) Tumor-bearing nude mice were randomly divided into four groups with 6 to 8 animals for each group, and different drug treatments were performed. […] Tumor volume was measured every other day. 2 to 4 weeks after administration, the mice were sacrificed and the tumor tissue was removed for further use.

Experiment [4] deals with PCNA and DNA-PKcs protein in H1299-NC and A549-shP53 tumor tissues. The experiment in a line: Immunofluorescence of PCNA and DNA-PKcs in tumor tissue, P53-deficient mouse tumor model. Type of experiment: in vivo, nude mice. The settings on record: H1299-NC and A549-shP53 tumors of Example 12; quantitative immunofluorescence. The method, then:
as §1
(§2) The tumor tissue removed in Example 12 was fixed and embedded, and then sectioned. PCNA (a marker molecule indicating the vigorous proliferation status of tumor cells) and DNA-PKcs protein in tumor tissues were stained by immunofluorescence technique, and were observed and imaged with a laser confocal microscope (Nikon A1). The experimental results are shown in FIG. 14A-14D, in which blue represents the nucleus of DAPI-stained cells, green represents the DNA-PKcs protein, and red represents the PCNA protein. Taking the H1299-NC tumor tissue shown in FIG. 14A as an example, the first column on the left represents DNA-PKcs single staining, and the green area represents the DNA-PKcs protein expression level. The second column on the left represents the results of DNA-PKcs (green) merged with nucleus (blue), and the overlapping part is shown in cyan. The third column on the left represents PCNA single staining, and the red area represents the PCNA protein expression level, indicating the strength of tumor cell proliferation. […]

The test system of experiment [5] is PCNA and DNA-PKcs protein in H1299-P53 and A549-NC tumor tissues. Put plainly: Immunofluorescence of PCNA and DNA-PKcs in tumor tissue, mouse tumor model with normal P53 function. The note with it: H1299-P53 and A549-NC tumors of Example 12; quantitative immunofluorescence. Type of experiment: in vivo, nude mice. The method, then: as §1, §2

“Also recorded” adds a separate entry of the source.

T1 sequence (P78527 whole entry): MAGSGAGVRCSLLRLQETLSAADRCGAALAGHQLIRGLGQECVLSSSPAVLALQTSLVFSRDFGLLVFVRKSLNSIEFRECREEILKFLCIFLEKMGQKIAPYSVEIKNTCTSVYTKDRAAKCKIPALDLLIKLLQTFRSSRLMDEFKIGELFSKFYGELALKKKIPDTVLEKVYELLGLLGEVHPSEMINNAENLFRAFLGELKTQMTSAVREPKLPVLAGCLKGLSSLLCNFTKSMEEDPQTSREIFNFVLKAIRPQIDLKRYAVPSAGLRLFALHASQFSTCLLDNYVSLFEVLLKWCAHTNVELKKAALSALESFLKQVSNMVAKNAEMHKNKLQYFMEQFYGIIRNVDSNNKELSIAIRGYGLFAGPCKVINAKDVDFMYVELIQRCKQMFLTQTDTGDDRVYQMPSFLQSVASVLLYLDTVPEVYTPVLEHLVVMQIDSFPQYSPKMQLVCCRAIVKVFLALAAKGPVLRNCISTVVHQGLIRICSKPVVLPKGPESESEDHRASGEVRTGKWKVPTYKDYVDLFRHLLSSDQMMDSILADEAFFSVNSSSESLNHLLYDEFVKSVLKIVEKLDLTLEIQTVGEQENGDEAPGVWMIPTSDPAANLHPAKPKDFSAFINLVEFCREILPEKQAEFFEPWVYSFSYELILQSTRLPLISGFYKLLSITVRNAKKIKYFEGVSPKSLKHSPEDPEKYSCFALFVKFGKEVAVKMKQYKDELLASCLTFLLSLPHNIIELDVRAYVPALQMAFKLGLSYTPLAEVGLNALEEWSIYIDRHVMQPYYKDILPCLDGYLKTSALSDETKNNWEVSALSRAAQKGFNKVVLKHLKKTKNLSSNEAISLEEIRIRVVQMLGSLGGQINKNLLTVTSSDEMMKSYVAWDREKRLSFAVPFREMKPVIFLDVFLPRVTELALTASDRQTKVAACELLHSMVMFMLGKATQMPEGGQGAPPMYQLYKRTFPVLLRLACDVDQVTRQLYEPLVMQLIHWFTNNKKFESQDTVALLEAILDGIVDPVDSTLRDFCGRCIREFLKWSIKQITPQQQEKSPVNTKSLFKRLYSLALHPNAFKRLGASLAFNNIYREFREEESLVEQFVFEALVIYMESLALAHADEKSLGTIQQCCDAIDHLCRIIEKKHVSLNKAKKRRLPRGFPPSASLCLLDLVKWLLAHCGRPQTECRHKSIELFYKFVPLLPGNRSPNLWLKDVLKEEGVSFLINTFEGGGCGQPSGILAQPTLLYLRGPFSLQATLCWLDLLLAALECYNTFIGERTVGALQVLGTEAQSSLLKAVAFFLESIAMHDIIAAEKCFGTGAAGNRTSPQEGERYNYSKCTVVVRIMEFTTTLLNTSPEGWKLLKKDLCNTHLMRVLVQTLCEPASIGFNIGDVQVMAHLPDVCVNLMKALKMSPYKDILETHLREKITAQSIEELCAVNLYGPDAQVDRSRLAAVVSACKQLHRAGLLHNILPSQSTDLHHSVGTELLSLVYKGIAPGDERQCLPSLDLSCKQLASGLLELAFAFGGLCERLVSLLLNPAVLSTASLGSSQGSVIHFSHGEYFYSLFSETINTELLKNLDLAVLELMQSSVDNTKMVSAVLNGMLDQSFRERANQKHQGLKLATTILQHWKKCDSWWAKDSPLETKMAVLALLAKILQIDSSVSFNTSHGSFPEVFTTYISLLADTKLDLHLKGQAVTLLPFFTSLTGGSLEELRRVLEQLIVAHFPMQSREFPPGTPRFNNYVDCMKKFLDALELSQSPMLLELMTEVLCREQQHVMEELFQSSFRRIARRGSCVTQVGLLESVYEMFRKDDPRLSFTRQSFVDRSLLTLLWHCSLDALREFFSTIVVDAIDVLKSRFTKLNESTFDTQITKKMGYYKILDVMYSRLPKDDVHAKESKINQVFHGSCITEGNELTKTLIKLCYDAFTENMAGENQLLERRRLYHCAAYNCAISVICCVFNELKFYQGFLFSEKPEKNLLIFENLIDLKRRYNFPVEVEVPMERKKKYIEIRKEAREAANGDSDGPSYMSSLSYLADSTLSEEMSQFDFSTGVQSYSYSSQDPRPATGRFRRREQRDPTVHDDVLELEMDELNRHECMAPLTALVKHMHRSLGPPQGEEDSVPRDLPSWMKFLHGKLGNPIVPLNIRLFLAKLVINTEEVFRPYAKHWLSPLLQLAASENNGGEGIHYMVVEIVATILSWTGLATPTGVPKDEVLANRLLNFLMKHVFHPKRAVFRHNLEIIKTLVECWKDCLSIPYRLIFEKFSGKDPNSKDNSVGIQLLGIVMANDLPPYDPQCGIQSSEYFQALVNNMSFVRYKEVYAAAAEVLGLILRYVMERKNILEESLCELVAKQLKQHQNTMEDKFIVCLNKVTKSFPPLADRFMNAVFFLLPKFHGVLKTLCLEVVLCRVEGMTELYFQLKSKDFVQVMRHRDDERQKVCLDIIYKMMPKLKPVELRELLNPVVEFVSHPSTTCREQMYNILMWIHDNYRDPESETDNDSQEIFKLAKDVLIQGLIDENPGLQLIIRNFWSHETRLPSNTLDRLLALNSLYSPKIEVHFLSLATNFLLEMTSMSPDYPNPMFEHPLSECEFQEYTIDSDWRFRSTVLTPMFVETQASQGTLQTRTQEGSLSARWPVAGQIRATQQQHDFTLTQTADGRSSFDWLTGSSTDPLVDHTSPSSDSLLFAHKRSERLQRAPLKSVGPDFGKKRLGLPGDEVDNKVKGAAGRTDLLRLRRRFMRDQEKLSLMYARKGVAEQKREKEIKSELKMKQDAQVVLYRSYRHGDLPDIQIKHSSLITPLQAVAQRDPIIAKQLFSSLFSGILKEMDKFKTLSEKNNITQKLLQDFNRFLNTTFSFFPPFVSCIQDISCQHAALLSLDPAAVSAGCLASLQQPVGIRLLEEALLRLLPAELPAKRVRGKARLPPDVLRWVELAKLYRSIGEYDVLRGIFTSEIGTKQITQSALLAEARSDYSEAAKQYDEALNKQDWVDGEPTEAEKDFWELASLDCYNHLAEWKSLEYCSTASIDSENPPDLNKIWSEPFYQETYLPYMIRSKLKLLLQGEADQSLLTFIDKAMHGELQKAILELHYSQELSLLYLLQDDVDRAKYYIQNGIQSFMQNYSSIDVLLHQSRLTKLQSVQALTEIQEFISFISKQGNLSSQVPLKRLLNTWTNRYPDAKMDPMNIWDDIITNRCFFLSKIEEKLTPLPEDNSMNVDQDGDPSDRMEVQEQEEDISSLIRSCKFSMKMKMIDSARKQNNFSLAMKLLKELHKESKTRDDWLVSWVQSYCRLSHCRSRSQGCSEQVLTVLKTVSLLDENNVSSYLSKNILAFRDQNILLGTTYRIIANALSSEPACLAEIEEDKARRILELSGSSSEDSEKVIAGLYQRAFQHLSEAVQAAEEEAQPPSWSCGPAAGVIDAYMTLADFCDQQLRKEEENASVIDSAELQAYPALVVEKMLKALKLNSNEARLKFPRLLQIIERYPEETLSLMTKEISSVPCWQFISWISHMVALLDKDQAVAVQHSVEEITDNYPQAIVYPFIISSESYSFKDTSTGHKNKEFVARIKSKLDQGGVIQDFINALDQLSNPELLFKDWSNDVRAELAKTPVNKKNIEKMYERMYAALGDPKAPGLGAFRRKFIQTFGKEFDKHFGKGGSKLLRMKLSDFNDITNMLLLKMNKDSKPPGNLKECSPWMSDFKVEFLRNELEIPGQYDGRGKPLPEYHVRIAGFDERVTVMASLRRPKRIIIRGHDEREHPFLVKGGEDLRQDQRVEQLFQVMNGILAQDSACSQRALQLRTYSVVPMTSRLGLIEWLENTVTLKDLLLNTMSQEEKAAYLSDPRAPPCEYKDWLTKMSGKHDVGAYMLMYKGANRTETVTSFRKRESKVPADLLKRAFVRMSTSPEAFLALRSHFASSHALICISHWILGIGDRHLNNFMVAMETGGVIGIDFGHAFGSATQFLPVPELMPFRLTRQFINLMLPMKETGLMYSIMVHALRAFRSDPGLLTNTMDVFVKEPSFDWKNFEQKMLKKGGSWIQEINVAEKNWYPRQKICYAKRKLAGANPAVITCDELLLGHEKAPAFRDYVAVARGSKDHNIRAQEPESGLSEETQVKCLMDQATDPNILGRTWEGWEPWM

B1: Endostatin: recombinant natural human endostatin expressed by E. coli, from Protgen, SEQ ID NO: 2 (protein)
chain: MHSHRDFQPVLHLVALNSPLSGGMRGIRGADFQCFQQARAVGLAGTFRAFLSSRLQDLYSIVRRADRAAVPIVNLKDELLFPSWEALFSGSEGPLKPGARIFSFDGKDVLRHPTWPQKSVWHGSDPNGRRLTESYCETWRTEAPSATGQASSLLGGRLLGQSAASCHHAYIVLCIENSFMTASK
modifications: The amino acid sequence of natural human endostatin
As for B1, in the experiment with DNA-PKcs (A549 cell lysate, BSA-coupled Sepharose as control), the “Endostatin-binding protein identified by pull-down, SDS-PAGE and mass spectrometric analysis” value was “DNA-PKcs was identified as a protein interacted with Endostatin”. Further, the “DNA-PKcs precipitated by Endostatin-coupled CNBr-activated Sepharose 4B (immunoblotting)” value with DNA-PKcs (H1299 and A549 cell lysates) is “can be precipitated by CNBr-activated Sepharose 4B coupled with Endostatin”. In addition, in the experiment with DNA-PKcs (H1299 and A549 cells incubated with Endostatin for 2 hours), the “Co-immunoprecipitation with antibody of DNA-PKcs” value is “Endostatin could be co-precipitated by DNA-PKcs”. The “Level of the DNA-PKcs signaling pathway (p-DNA-PKcs (S2056), p-AKT (S473), p-P53 (S15))” value in [1] is given as “did not affect the level of the DNA-PKcs signaling pathway”. Further, in the experiment on H1299 and A549 cells (DNA-PKcs siRNA), the “Role of Endostatin in promoting apoptosis induced by Etoposide after knocking down DNA-PKcs” value is reported as “weakened”. Also, the Etoposide-induced apoptosis entry in the experiment with H1299 and A549 cells (control siRNA) is reported as “would further promote Etoposide-induced apoptosis”. Moreover, in experiment [2], the “Effect on inhibition of tumor cell colony-forming ability by Etoposide” value is reported as “could enhance the inhibitory effect of Etoposide on tumor cell colony-forming ability”. The “Effect on ability of Etoposide to promote apoptosis (PI-positive cells)” value in [3] was “could enhance the ability of Etoposide to promote the apoptosis of tumor cells”. For the same molecule, the “Effect on the inhibitory effect of Etoposide on cell activity” value in the experiment on A375 cells was “did not significantly enhance the inhibitory effect of Etoposide”. In the experiment with A549-NC tumor (Day 27, compared with control group, Endostatin 20 mg/kg i.p. once a day, Etoposide 2 mg/kg i.p. once every two days), this molecule showed a tumor suppression rate of 40.9%. In addition, the “Effect on the inhibitory effect of Etoposide on tumor growth” value in the experiment with A549-NC tumor (Endostatin 20 mg/kg i.p. once a day and Etoposide 2 mg/kg i.p. once every two days) was “could not enhance the inhibitory effect of Etoposide on tumor growth”. The “Tumor cell proliferation (PCNA) and protein level of DNA-PKcs in tumor tissue” value in experiment [4] is “can attenuate tumor cell proliferation to a certain extent and reduce the protein level of DNA-PKcs”; in experiment [5] it was “could reduce the proliferation of tumor cells and reduce the protein level of DNA-PKcs; also recorded: did not enhance the inhibitory effect of Etoposide on tumor proliferation and the effect of Etoposide on the protein levels of DNA-PKcs”.
